Test results published in the RNAGym collection of RNA variant scans (doi:10.7554/elife.80360).

B1: HDV Ribozyme (parent)
chain: GGCCGGCAUGGUCCCAGCCUCCUCGCUGGCGCCGGCUGGGCAACAUUCCGAGGGGACCGUCCCCUCGGUAAUGGCGAAUGGGACCCA

Variants of: B1
Assay: self-cleavage, relative activity (ratio to wild type); higher = more cleavage; co-transcriptional
C19A G35U gave a self-cleavage of 0.115. C19A G35A gave a self-cleavage of 0.111. U20G G74U gave a self-cleavage of 0. C19A G53A showed a self-cleavage of 0.149. In the case of C19A G53U, the self-cleavage is reported as 0.157. In the case of C21A G25U, the self-cleavage is reported as 0.113. Work on U20A G52U yielded a self-cleavage of 0.0462. Work on U20A G52A yielded a self-cleavage of 0.0415. C19U C62G showed a self-cleavage of 0. C19A U20A showed a self-cleavage of 0.0234. For C19U C75G, the self-cleavage was 0.0739. U20A A77U gave a self-cleavage of 0. With U20G C66G the self-cleavage was 0.511. Work on U20C G53C yielded a self-cleavage of 0.151. In the case of U20A C85U, the self-cleavage is reported as 0.0405. Work on U20A C41G yielded a self-cleavage of 0.135. With C19A G34A the self-cleavage was 0.0755. For C19A G34C, the self-cleavage was 0.0739. C21A C63G gave a self-cleavage of 0.0978. Variant U20C U27G has a self-cleavage of 0.185. U20G G67C gave a self-cleavage of 0.554. With U20A G68C the self-cleavage was 0.0978. In the case of U20C C85G, the self-cleavage is reported as 0.0519. In the case of U20A U79G, the self-cleavage is reported as 0.0665. With U20A U79A the self-cleavage was 0.0573. Work on U20A U79C yielded a self-cleavage of 0. With C19G G34A the self-cleavage was 0.248. Variant C19G G34C has a self-cleavage of 0.0978. For C19U C21U, the self-cleavage was 0.0378. Work on C21A G74A yielded a self-cleavage of 0.0536. C19G G55C gave a self-cleavage of 0.0475. For C19G G55A, the self-cleavage was 0.0346. With U20C G29A the self-cleavage was 0.0773. Work on U20G U37G yielded a self-cleavage of 0. Work on C19G A78C yielded a self-cleavage of 0.119. In the case of U20C C48A, the self-cleavage is reported as 0.341. In the case of C19U A78U, the self-cleavage is reported as 0.111. U20G C64U showed a self-cleavage of 0.291. C21A U27G gave a self-cleavage of 0.0639. Work on C21A G53U yielded a self-cleavage of 0.135. In the case of C19A C33G, the self-cleavage is reported as 0.0475. Variant C19A C24A has a self-cleavage of 0.0831. U20G C44G showed a self-cleavage of 0. In the case of U20G C44U, the self-cleavage is reported as 0.192. In the case of C21A U46G, the self-cleavage is reported as 0.138. Variant U20G G76U has a self-cleavage of 0.388. U20C G31C gave a self-cleavage of 0.0594. In the case of C19G C30A, the self-cleavage is reported as 0.0225. Work on C19G C30G yielded a self-cleavage of 0.0739. In the case of U20G C33G, the self-cleavage is reported as 0.185. With C19U U46G the self-cleavage was 0. Work on C19U U46C yielded a self-cleavage of 0.213. Variant C19G G31A has a self-cleavage of 0.0554. For C19G U72A, the self-cleavage was 0.0563. Variant C19G U72G has a self-cleavage of 0. Variant C19U A51C has a self-cleavage of 0.204. Variant C19U U47G has a self-cleavage of 0.0906. Variant C21A G68C has a self-cleavage of 0. U20A G31C showed a self-cleavage of 0.0475. In the case of C19G C32G, the self-cleavage is reported as 0.0462. With C19A U72A the self-cleavage was 0.0504. For U20G G82A, the self-cleavage was 0.123. U20A G29A showed a self-cleavage of 0.0773. In the case of U20G G31A, the self-cleavage is reported as 0. U20G G31C showed a self-cleavage of 0. For C19G C62G, the self-cleavage was 0.0791. With U20A C32U the self-cleavage was 0.0811. In the case of U20G G53U, the self-cleavage is reported as 0.208. With U20G C75U the self-cleavage was 0.0875. C19G A45G gave a self-cleavage of 0.106. U20C C58G gave a self-cleavage of 0.0923. With C21A G81A the self-cleavage was 0.0647. Work on C21A C49A yielded a self-cleavage of 0.157. For C21A C49U, the self-cleavage was 0.0272. For C19A G81U, the self-cleavage was 0.133. For C19G G80A, the self-cleavage was 0.131. U20C G40U showed a self-cleavage of 0.113. Variant C19G A83C has a self-cleavage of 0. Work on C19U C85G yielded a self-cleavage of 0.102. For U20C G39C, the self-cleavage was 0.185. Variant U20C G73U has a self-cleavage of 0.0875. For U20C C33G, the self-cleavage was 0. With C19U G29U the self-cleavage was 0.153. U20A C62U showed a self-cleavage of 0.0475. In the case of U20A G53U, the self-cleavage is reported as 0.0959. Work on C21A G73U yielded a self-cleavage of 0.0528. For C21A G73A, the self-cleavage was 0.161. With C19A U65A the self-cleavage was 0.273. Variant C19A U65G has a self-cleavage of 0.189. C19A U65C showed a self-cleavage of 0.155. C21A U47G gave a self-cleavage of 0.0504. For C21A U47C, the self-cleavage was 0. Work on C19A G52U yielded a self-cleavage of 0.149. With C19G G38C the self-cleavage was 0.0639. For C19G G38U, the self-cleavage was 0.0852. U20C G74U gave a self-cleavage of 0.104. For U20C U46G, the self-cleavage was 0. Variant C19A C32A has a self-cleavage of 0.0604. Variant U20C G68C has a self-cleavage of 0.192. U20C G68A gave a self-cleavage of 0.111. Work on U20C G68U yielded a self-cleavage of 0.145. For U20C C32G, the self-cleavage was 0.138. With C19A G54U the self-cleavage was 0.201. C19A G54C gave a self-cleavage of 0.0817. In the case of C19U G59U, the self-cleavage is reported as 0.194. With C19U G59C the self-cleavage was 0.205. C21A A70G gave a self-cleavage of 0. In the case of C19U C24G, the self-cleavage is reported as 0.0475. Variant C21A G54A has a self-cleavage of 0.0437. In the case of C19U C49U, the self-cleavage is reported as 0.131. With U20C U65A the self-cleavage was 0.166. Work on U20G U65A yielded a self-cleavage of 0.138. Variant U20G U65C has a self-cleavage of 0.222. U20C G55A gave a self-cleavage of 0.0405. Variant C19G G76C has a self-cleavage of 0. U20A C57A gave a self-cleavage of 0.0978. U20C U37G showed a self-cleavage of 0.185. Work on U20C U37A yielded a self-cleavage of 0.107. C19G A56C showed a self-cleavage of 0.0489. C21A C33G showed a self-cleavage of 0.0554. Variant C21A A56U has a self-cleavage of 0.108. C21A G31A showed a self-cleavage of 0.0482. U20G C22A gave a self-cleavage of 0.185. With U20G C22U the self-cleavage was 0.145. Work on U20G C22G yielded a self-cleavage of 0.266. In the case of C19G C48U, the self-cleavage is reported as 0.0733. In the case of C19G C48A, the self-cleavage is reported as 0.115. For U20G G59U, the self-cleavage was 0.231. U20G G59C showed a self-cleavage of 0.361. U20A U69A gave a self-cleavage of 0. For C19U G28A, the self-cleavage was 0.956. Work on C19G C85G yielded a self-cleavage of 0.111. Work on U20A G54A yielded a self-cleavage of 0.116. C19A G80C gave a self-cleavage of 0.0665. In the case of U20G A51G, the self-cleavage is reported as 0.145. Work on U20G A51C yielded a self-cleavage of 0.332. For U20G G54U, the self-cleavage was 0.125. Work on U20G G54A yielded a self-cleavage of 0.201. U20G A77G gave a self-cleavage of 0.0692. Work on U20G A77C yielded a self-cleavage of 0.178. U20G A77U showed a self-cleavage of 0.237. In the case of U20A C33U, the self-cleavage is reported as 0. C19A G38C showed a self-cleavage of 0.0248. U20A U23A showed a self-cleavage of 0.277. Work on U20C U79A yielded a self-cleavage of 0. In the case of C19G C84U, the self-cleavage is reported as 0.0504. With U20G G73A the self-cleavage was 0.113. Variant U20A C36U has a self-cleavage of 0. Work on U20A C36A yielded a self-cleavage of 0.135. Variant U20A C36G has a self-cleavage of 0.18. With C21A C48G the self-cleavage was 0.122. For U20C C49A, the self-cleavage was 0.172. With C19A C63A the self-cleavage was 0.153. C19U U23G gave a self-cleavage of 0.237. Variant C19U A71U has a self-cleavage of 0.13. With U20G U60C the self-cleavage was 0.111. C19U C61U gave a self-cleavage of 0.0898. For C21A G38A, the self-cleavage was 0.0237. U20C C61U showed a self-cleavage of 0.0723. C19G U47G gave a self-cleavage of 0. C19G G40U showed a self-cleavage of 0.0997. With U20C U47A the self-cleavage was 0.133. For C19G C64A, the self-cleavage was 0.0528. In the case of C21A U60C, the self-cleavage is reported as 0.0739. Work on C21A U60A yielded a self-cleavage of 0.0361. Variant C21A A42G has a self-cleavage of 0.158. Work on U20C G82C yielded a self-cleavage of 0.0639.
